Data on 73 sequences can be found in the supplement of paper PMC10567573.

The nature of the data set: protein stability index of a GFP-peptide fusion (GPS, HEK-293T) (PSI 1-6); higher = more stable.
Where [1] appears, read: treatment: DMSO, c terminus: a fixed tail appended.
The mark [2] stands for this setting: treatment: MLN4924 1 uM, 8 h, c terminus: a fixed tail appended.
The mark [3] stands for this setting: treatment: DMSO, c terminus: native.
[4] abbreviates: treatment: MLN4924 1 uM, 8 h, c terminus: native.

± gives the standard deviation.
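Note: 24-mer peptide tiles fused after GFP, lentivirally expressed, FACS-sorted into six equal bins by GFP/DsRed ratio, decoded by Illumina sequencing, PSI is the read-weighted mean bin number.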

FVVEYHGDLIEITDAKKREALYAQ [KMT5A]: the protein stability index is 2.65 ± 0.34 under setting [1] and 2.73 ± 0.41 under setting [2].
Consider FYRSTAPSEDIWKKFELVPSPPTS [MYCL], for which the protein stability index came to 2.67 ± 0.15 under setting [1] and 2.76 ± 0.32 under setting [2].
Regarding FYSAYLVAEKVVVITKHNDDEQYA [HSP90AB1], the protein stability index under setting [1] was found to be 2.18 ± 0.23 and the protein stability index under setting [2] turned out to be 2.11 ± 0.43.
For the sequence GAAEEARRLEQRWGFGLEELYGLA [ACBD3], the protein stability index reads like this: under setting [1], 2.77 ± 0.37; under setting [2], 2.99 ± 0.12.
On to GAERLDALLADEERCLSCILAQQP [TRADD], for which the protein stability index is, setting by setting: under setting [1], 3.59 ± 0.25; under setting [2], 3.83 ± 0.28.
As to GAQVKELEEKCQQPASELLQDVRV [TRIM15], the protein stability index turned out to be 5.4 ± 0.36 under setting [1] and 5.43 ± 0.12 under setting [2].
The matching figures for GATPSYHWDLAELLPNQSHGNQSA [SLC22A15]: 4.06 ± 0.19 and 4.22 ± 0.33.
GAYIGEGRVEVLKNGEWGTVCDDK [LOXL2]: the protein stability index under setting [1] is 4.99 ± 0.36.
Take GCQLDLRYADLEAVNRARRPLARP [RHOBTB1]: the protein stability index runs as follows: under setting [1], 3.07 ± 0.12; under setting [2], 3.16 ± 0.28.
The matching figures for GCSQFRLAVLDWNQRAMDLYKALG [SAT2]: 2.2 ± 0.39 and 2.02 ± 0.18.
As for GDDFELLDQSELSQLDPASSRSH [RETREG3], the protein stability index by setting is: under setting [3], 4.75 ± 0.29; under setting [4], 4.85 ± 0.4.
Consider GEEAVTLVEDMQRELGRLRQQVTN [ZNF263], for which the protein stability index worked out at 4.1 ± 0.14 under setting [1] and 4.02 ± 0.29 under setting [2].
GESFPAQVPSGEDQTALSLEECLR [NFE2L1]: the protein stability index reads like this: under setting [1], 5.08 ± 0.89; under setting [2], 5.15 ± 0.076.
On to GFEHYDLFFIDGSTPSDNIVRRFL [CDC14A], for which the protein stability index under setting [1] came to 2.12 ± 0.24 and the protein stability index under setting [2] stood at 2.16 ± 0.25.
For the sequence GFSSIPDAFWWAVVTMTTVGYGDM [KCNA3], the protein stability index amounted to 3.06 ± 0.47 under setting [1] and 3.25 ± 0.27 under setting [2].
GGAQASGTLIGVGQSVTAVGRIIA [MFSD9] had a protein stability index under setting [1] of 3.38 ± 0.34 and a protein stability index under setting [2] of 3.42 ± 0.2.
On to GGGGGGGGTSSNNSEEEEDDDDEE [ANKRD17], for which the protein stability index amounted to 5.68 ± 0.21 under setting [1] and 5.55 ± 0.34 under setting [2].
For the sequence GGGGVAAVVVLDQGSRHWQKLREE [DUSP5], the protein stability index by setting is: under setting [1], 2.96 ± 0.26; under setting [2], 2.65 ± 0.3.
Take GGKNCKKPAEYGYVSLGRLGAAKG [CEBPB]: the protein stability index was found to be 3.64 ± 0.27 under setting [1] and 3.52 ± 0.54 under setting [2].
Consider GIPGWGFSGWISALVVPKGNTAVS [SCAMP3], for which the protein stability index amounted to 2.78 ± 0.72 under setting [1] and 2.41 ± 0.52 under setting [2].
In turn, GIVVWNMDVERQETPEWLDSDSCQ [WDFY2] yielded a protein stability index under setting [1] of 3.3 ± 0.2 and a protein stability index under setting [2] of 3.5 ± 0.32.
For the sequence GKETLTPSELRDLVTQQLPHLMPS [S100A14], the protein stability index is, setting by setting: under setting [1], 3.94 ± 0.65; under setting [2], 3.99 ± 0.12.
As for GKGDDSETDKNNCSNAKAVETDV [KCNA4], the protein stability index under setting [3] stood at 5.13 ± 0.28 and the protein stability index under setting [4] is 5.52 ± 0.38.
For the sequence GKQPVSLPARRLKLRGRKRRQRG [CPXM2], the protein stability index under setting [4] is 3.59 ± 0.25.
On to GLANSSRVRGRVGTIRPVRCPSSS [C22orf15], for which the protein stability index under setting [1] was found to be 4.12 ± 0.14 and the protein stability index under setting [2] was 4.23 ± 0.21.
The matching figures for GLEDAGLDPHFVPTELWPQEAVPL [TEX19]: 4.44 ± 0.13 and 4.62 ± 0.12.
With GLGCKDLDLIFHVALPTEAEFQLV [TENT5C], the protein stability index amounted to 2.26 ± 0.21 under setting [1] and 2.28 ± 0.45 under setting [2].
The matching figures for GLGLPMSRSQNTDMVQKSVSKTLP [CLINT1]: 4.33 ± 0.23 and 4.44 ± 0.099.
The matching figures for GLHYIAFRKVKQMHLNFMDEKDRI [DNAJC4]: 2.54 ± 0.29 and 2.65 ± 0.35.
The matching figures for GLIPTGSGRHPSHSTTPSGPGDEV [ARFIP2]: 5.08 ± 0.17 and 5.04 ± 0.1.
As for GLTDVSQIITVTVQTGLDQYQQVP [IQUB], the protein stability index by setting is: under setting [1], 2.26 ± 0.085; under setting [2], 2.47 ± 0.23.
The matching figures for GMASFRFPETTFISVTAYQNPQIT [TBX6]: 2.34 ± 0.62 and 2.29 ± 0.11.
For the sequence GMLSYCDRYSEGIKHVLQTFGPIP [CRYL1], the protein stability index reads like this: under setting [1], 2.72 ± 0.5; under setting [2], 2.196 ± 0.02.
For the sequence GNPSTNSRVTASSGITIPKPPKPP [SMARCE1], the protein stability index by setting is: under setting [1], 4.67 ± 0.32; under setting [2], 4.7 ± 0.13.
The matching figures for GNTESELKKLAEENPDLQEAYIAK [GDAP1]: 5.51 ± 0.26 and 5.5 ± 0.26.
For the sequence GPGEPDVRDGFSATFEKILESELL [PSD2], the protein stability index by setting is: under setting [1], 3.91 ± 0.25; under setting [2], 4.03 ± 0.34.
The matching figures for GPLAETTEDFWRMLWEHNSTIVVM [PTPRD]: 2.48 ± 0.42 and 2.4 ± 0.33.
The matching figures for GQFYLDLYPREGKYNHAACFGLQP [NLN]: 1.91 ± 0.16 and 2.09 ± 0.31.
With GQLEFRALLFIPRRAPFDLFENKK [HSP90AB1], the protein stability index under setting [1] worked out at 2.22 ± 0.22.
GQMSTPETPQPSPPGGSGSEPYKL [HNF4A]: the protein stability index under setting [1] was found to be 5.16 ± 0.21 and the protein stability index under setting [2] amounted to 5.17 ± 0.19.
As for GRPPDPADWAVMDVVNYFRTVGFE [SAMD13], the protein stability index is, setting by setting: under setting [1], 2.57 ± 0.25; under setting [2], 2.78 ± 0.3.
For the sequence GRRAATALLWLSCSIALLRALATS [GNAS], the protein stability index stood at 2.26 ± 0.37 under setting [1] and 2.02 ± 0.24 under setting [2].
The matching figures for GRRGWKKFYAVLKGTILYLQKDEY [PSD2]: 3 ± 0.4 and 3.32 ± 0.37.
GRVVPESQCQMETKPLAIHPCGDK [ADAMTSL2] returned a protein stability index under setting [1] of 4.53 ± 0.17 and a protein stability index under setting [2] of 4.71 ± 0.46.
On to GSCQLGGGRGVSTCSTRFVSGGSA [KRT13], for which the protein stability index was 3.32 ± 0.47 under setting [1] and 3.87 ± 0.21 under setting [2].
The matching figures for GSCSTVGGVGYGDSKDCILEPLSL [ZNF277]: 3.59 ± 0.32 and 3.5 ± 0.24.
GSGDSGDSSEEESHRVVLRPRGKE [LYSMD4]: the protein stability index is 5.55 ± 0.19 under setting [1] and 5.35 ± 0.12 under setting [2].
As for GSPQQPGLSAPHSRQIPAPQGAVL [KISS1], the protein stability index runs as follows: under setting [1], 4.3 ± 0.15; under setting [2], 4.61 ± 0.28.
For GSQLPKPRMLRESGHGDAHLQEYA [FATE1], the protein stability index amounted to 4.38 ± 0.25 under setting [1] and 4.5 ± 0.11 under setting [2].
Consider GTNAWEEIATKPHEKIGFPAARRC [KLHDC10], for which the protein stability index by setting is: under setting [1], 3.96 ± 0.22; under setting [2], 3.91 ± 0.37.
GTPSPSRSRDSNSGPEEPLLEEEE [RTN2]: the protein stability index reads like this: under setting [1], 5.49 ± 0.24; under setting [2], 5.72 ± 0.27.
Sequence GVAVGDWVLSIDGENAGSLTHIEA [PDLIM7] showed a protein stability index under setting [1] of 3.03 ± 0.5 and a protein stability index under setting [2] of 2.96 ± 0.36.
With GVCGDRATGFHFNAMTCEGCKGFF [VDR], the protein stability index reads like this: under setting [1], 2.28 ± 0.13; under setting [2], 2.38 ± 0.19.
With GVFVGVISFGQLSDRFGRKKVYLT [SLC22A15], the protein stability index came to 2.82 ± 0.43 under setting [1] and 2.7 ± 0.39 under setting [2].
GVIQSVSSWKHGSGTQYVSTRQTQ [C18orf25]: the protein stability index reads like this: under setting [1], 3.19 ± 0.11; under setting [2], 3.52 ± 0.35.
Consider GVPPLKLCKNLNREAQQYSEALAS [GLIPR2], for which the protein stability index reads like this: under setting [1], 3.89 ± 0.44; under setting [2], 3.96 ± 0.14.
The matching figures for GVPVQPVLIRYPNSLDTTSWAWRG [LPCAT4]: 2.28 ± 0.26 and 2.34 ± 0.31.
As for GVSFQAISSMADFWDFAQGPLLDS [PKD2L1], the protein stability index was determined as 2.4 ± 0.29 under setting [1] and 2.87 ± 0.32 under setting [2].
The matching figures for GYNLRALAEGVSASLHTLLGDPCP [HDAC6]: 2.6 ± 0.31 and 2.64 ± 0.2.
Turning to GYSDRDGYGRDRDYSDHPSGGSYR [RBMX], the protein stability index is, setting by setting: under setting [1], 4.6 ± 0.31; under setting [2], 4.81 ± 0.45.
The matching figures for HCHKRRTRSCSSASSRSQQSSKRS [CLK3]: 5.19 ± 0.26 and 5.06 ± 0.063.
With HCMAPPLLHLDLKPANILLDAHYH [RIPK4], the protein stability index is, setting by setting: under setting [1], 2.27 ± 0.23; under setting [2], 2.38 ± 0.22.
With HCVTSDPATSPLVLAIPRRLRVEL [TRIM35], the protein stability index came to 2.3 ± 0.37 under setting [1] and 2.13 ± 0.44 under setting [2].
HEAFKDELKTFRLKTRSWAGERSR [CDC25B]: the protein stability index worked out at 3.57 ± 0.3 under setting [1] and 3.8 ± 0.22 under setting [2].
Regarding HEVKDNYIPVIKRALNSVPVIIAA [RHOBTB3], the protein stability index was found to be 2.34 ± 0.34 under setting [1] and 2.18 ± 0.17 under setting [2].
For HEVREFKQLIYRVRRTDDTPVVLV [RIT1], the protein stability index runs as follows: under setting [1], 2.2 ± 0.29; under setting [2], 2.24 ± 0.16.
The matching figures for HFHPTVIGESMYGDFEEAFDHLQN [TENT5C]: 3.82 ± 0.064 and 3.9 ± 0.37.
Take HFWGEKNHGFEVLYHSVKQGPIST [FCHO1]: the protein stability index came out at 2.44 ± 0.52 under setting [1] and 2.48 ± 0.43 under setting [2].
For HGDPIPKVEFTEEEIKTWGTVFQE [TPH1], the protein stability index runs as follows: under setting [1], 4.87 ± 0.2; under setting [2], 4.86 ± 0.16.
Regarding HIDIVKELIKWRAAIVVNGHGMTP [FEM1B], the protein stability index is 2.15 ± 0.53 under setting [1] and 2.17 ± 0.26 under setting [2].
As for HKKKSPGEKPHRCPQCGKCFARKS [ZNF449], the protein stability index is 3.86 ± 0.55 under setting [1] and 4.23 ± 0.43 under setting [2].
The matching figures for HLTVHKRIHTGERPYMCKECGKAF [ZNF8]: 2.73 ± 0.28 and 3.27 ± 0.38.
For HMNVEALPEWISCLIQKAQWTVGK [RNF180], the protein stability index by setting is: under setting [1], 2.32 ± 0.51; under setting [2], 2.19 ± 0.34.
